The values that follow come from the supplement of paper PMC10724198.

± gives the standard deviation of the averaged measurements.

In data set [1] the test system is Saccharomyces cerevisiae. In words: protein stability index of tFT-peptide fusion (C-terminal peptide) (PSI (0-1 scale)); higher = more stable (slower turnover). Here is the method:
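MPS profiling in S. cerevisiae of the tFT-X12 degron library: putative degron peptides plus stable controls, 12 aa, fused to the C-terminus of a sfGFP-mCherry timer. Cells are FACS-sorted into 8 mCherry/sfGFP bins and deep-sequenced. PSI runs from 0 (unstable) to 1 (stable). Backgrounds are wild type, das1Δ and doa10Δ at 30 °C, and wild type, das1Δ, cdc34-1 and cdc53-1 at 37 °C; 2-3 technical replicates each.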

Data set [2] relates to Saccharomyces cerevisiae. Described as above. The following applies: genetic background: wild type; temperature: 30 C.
Setting [3] is: genetic background: cdc34-1, temperature: 37 C.
The mark [4] stands for this setting: genetic background: cdc53-1, temperature: 37 C.
[5] abbreviates: genetic background: das1 deletion, temperature: 30 C.
The mark [6] stands for this setting: genetic background: das1 deletion, temperature: 37 C.
The mark [7] stands for this setting: genetic background: doa10 deletion, temperature: 30 C.
Where [8] appears, read: genetic background: wild type, temperature: 30 C.
Where [9] appears, read: genetic background: wild type, temperature: 37 C.
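Note: PSI is a weighted mean of sequencing reads over stability bins, variants kept only with over 10 reads, mCherry proximal and sfGFP distal, peptide attached via GGGS linker.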

On to GGGRGGRWGRLC, for which the protein stability index with Saccharomyces cerevisiae [1] (setting [3]) worked out at 0.65 ± 0.042; in the data set on Saccharomyces cerevisiae [1] (setting [4]), 0.743 ± 0.016; with Saccharomyces cerevisiae [1] (setting [5]) it was 0.654 ± 0.013; with Saccharomyces cerevisiae [1] (setting [6]), 0.7395 ± 0.007; in the data set on Saccharomyces cerevisiae [1] (setting [7]), 0.188 ± 0.018; with Saccharomyces cerevisiae [1] (setting [8]), 0.214 ± 0.024. In addition, the protein stability index with Saccharomyces cerevisiae [1] (setting [9]) is 0.483 ± 0.012.

As to GLLMCNPLLHSI, the protein stability index came out at 0.66632 ± 0.00053 with Saccharomyces cerevisiae [1] (setting [3]); 0.734 ± 0.0075 in the data set with Saccharomyces cerevisiae [1] (setting [4]); 0.674 ± 0.038 in the data set on Saccharomyces cerevisiae [1] (setting [5]); 0.727 ± 0.03 with Saccharomyces cerevisiae [1] (setting [6]); 0.589 ± 0.032 in the data set on Saccharomyces cerevisiae [1] (setting [7]); 0.614 ± 0.011 in the data set with Saccharomyces cerevisiae [1] (setting [8]). The sequence also came in with a protein stability index in the data set on Saccharomyces cerevisiae [1] (setting [9]) of 0.704 ± 0.016. As for IMWAFFMFCSFL, the protein stability index with Saccharomyces cerevisiae [1] (setting [3]) was determined as 0.498 ± 0.067; in the data set with Saccharomyces cerevisiae [1] (setting [4]), 0.53764 ± 0.00031; with Saccharomyces cerevisiae [1] (setting [5]), 0.428 ± 0.057; in the data set on Saccharomyces cerevisiae [1] (setting [6]) it was 0.5564 ± 0.0029; in the data set on Saccharomyces cerevisiae [1] (setting [7]), 0.37 ± 0.0076; with Saccharomyces cerevisiae [1] (setting [8]), 0.367 ± 0.026. For the same sequence, the protein stability index in the data set with Saccharomyces cerevisiae [1] (setting [9]) turned out to be 0.481 ± 0.044. In the case of LSLCFGPFFYFP, the protein stability index with Saccharomyces cerevisiae [1] (setting [3]) worked out at 0.679 ± 0.072; in the data set with Saccharomyces cerevisiae [1] (setting [4]), 0.7329 ± 0.0056; in the data set on Saccharomyces cerevisiae [1] (setting [5]), 0.64 ± 0.029; in the data set with Saccharomyces cerevisiae [1] (setting [6]), 0.711 ± 0.03; in the data set on Saccharomyces cerevisiae [1] (setting [7]), 0.64 ± 0.042; in the data set on Saccharomyces cerevisiae [1] (setting [8]), 0.6242 ± 0.0027. Besides, the protein stability index with Saccharomyces cerevisiae [1] (setting [9]) came out at 0.704 ± 0.046.

As for PPPPPSARSPFR, the protein stability index with Saccharomyces cerevisiae [1] (setting [3]) worked out at 0.649 ± 0.043; in the data set with Saccharomyces cerevisiae [1] (setting [4]) it was 0.726 ± 0.012; in the data set with Saccharomyces cerevisiae [1] (setting [5]), 0.633 ± 0.027; in the data set on Saccharomyces cerevisiae [1] (setting [6]), 0.7402 ± 0.0063; with Saccharomyces cerevisiae [1] (setting [7]), 0.603 ± 0.03; with Saccharomyces cerevisiae [1] (setting [8]), 0.602 ± 0.0097. Moreover, the protein stability index with Saccharomyces cerevisiae [1] (setting [9]) is 0.695 ± 0.004. With RVIESRWFNRLC, the protein stability index in the data set on Saccharomyces cerevisiae [1] (setting [3]) is 0.587 ± 0.033; in the data set with Saccharomyces cerevisiae [1] (setting [4]), 0.72 ± 0.015; with Saccharomyces cerevisiae [1] (setting [5]), 0.656 ± 0.025; in the data set on Saccharomyces cerevisiae [1] (setting [6]) it was 0.7405 ± 0.0048; with Saccharomyces cerevisiae [1] (setting [7]), 0.0884 ± 0.011; with Saccharomyces cerevisiae [1] (setting [8]), 0.121 ± 0.019. Also, the protein stability index in the data set on Saccharomyces cerevisiae [1] (setting [9]) worked out at 0.229 ± 0.018. Regarding TFCVLLQFCVLV, the protein stability index in the data set with Saccharomyces cerevisiae [1] (setting [3]) worked out at 0.365 ± 0.039; in the data set with Saccharomyces cerevisiae [1] (setting [4]), 0.398 ± 0.017; in the data set on Saccharomyces cerevisiae [1] (setting [5]) it was 0.308 ± 0.028; with Saccharomyces cerevisiae [1] (setting [6]) it was 0.426 ± 0.02; in the data set with Saccharomyces cerevisiae [1] (setting [7]), 0.3058 ± 0.0007; in the data set on Saccharomyces cerevisiae [1] (setting [8]), 0.315 ± 0.012. The sequence also gave a protein stability index in the data set with Saccharomyces cerevisiae [1] (setting [9]) of 0.411 ± 0.0012. Sequence YGSRWRPYLGFR yielded a protein stability index in the data set with Saccharomyces cerevisiae [2] of 0.669 ± 0.028. On the same count and under the same terms, under YGTLCPLNGCGI stands 0.633 ± 0.068; under YGWGVWFIGLGG, 0.794 ± 0.095. On to YIDLVEGECNKK, for which the protein stability index in the data set with Saccharomyces cerevisiae [2] stood at 0.685 ± 0.046. Same read-out and setting: under YILSSFWTEVDS stands 0.703 ± 0.093.

YKTCKEKKITNR registered a protein stability index in the data set on Saccharomyces cerevisiae [2] of 0.704 ± 0.014. On the same count and under the same terms, the same measure for YLCRLHLGGLSS: 0.602 ± 0.0075; for YLEDRGTSGSVQ: 0.676 ± 0.054; for YLSRIFPSLLFL: 0.6 ± 0.03.

YLSSTVVRSMLF displayed a protein stability index in the data set on Saccharomyces cerevisiae [2] of 0.644 ± 0.014. Same read-out and setting: the same measure for YLVHEIGDMTYM: 0.739 ± 0.079; for YLVSYLSLFLSF: 0.504 ± 0.029. Still for that read-out and setting: under YNGNSHQTHRHP stands 0.74 ± 0.022; under YNGVGGLKPEPC, 0.658 ± 0.049.

The sequence YPKGKHSQDSHV showed a protein stability index in the data set with Saccharomyces cerevisiae [2] of 0.656 ± 0.039. In the data set with Saccharomyces cerevisiae [2], YPLLPSERDVKA registered a protein stability index of 0.728 ± 0.023. On the same count and under the same terms, the same measure for YPPPPPSPPSTV: 0.722 ± 0.027.

YPRNPSLSTSAS had a protein stability index in the data set with Saccharomyces cerevisiae [2] of 0.63 ± 0.16. On the same count and under the same terms, the same measure for YPRPLSLSFLSL: 0.73 ± 0.048; for YPVLFLRSAPCK: 0.584 ± 0.031. On the same count and under the same terms, under YQCESDLFLVGV stands 0.642 ± 0.041. The same measure, in the same setting: under YQCGRRVGSACD stands 0.645 ± 0.023; under YQCVQNNKGRSR, 0.67 ± 0.024. Sequence YQLRRGDSSLTE registered a protein stability index in the data set on Saccharomyces cerevisiae [2] of 0.677 ± 0.085. On the same count and under the same terms, under YRDTVYKVRYSN stands 0.537 ± 0.015; under YRERSTIKITGN, 0.671 ± 0.054. As to YRGNLVTDGYGA, in the data set with Saccharomyces cerevisiae [2], the protein stability index worked out at 0.685 ± 0.019. The sequence YRPFQAPPLVLF displayed a protein stability index with Saccharomyces cerevisiae [2] of 0.6379 ± 0.0026.

In the case of YRPGGDRMTGFV, the protein stability index in the data set on Saccharomyces cerevisiae [2] came to 0.713 ± 0.065. Still for that read-out and setting: the same measure for YRRGLGEYRTRS: 0.688 ± 0.059; for YRSEEFSGESGW: 0.769 ± 0.11; for YRTPRSRHLDSP: 0.6938 ± 0.0068.

Turning to YRVGCCCFFALT, the protein stability index in the data set with Saccharomyces cerevisiae [2] worked out at 0.618 ± 0.016. Regarding YRVSWSFLGCFQ, the protein stability index in the data set with Saccharomyces cerevisiae [2] is 0.62 ± 0.071. On the same count and under the same terms, the same measure for YSDFLICGIGSY: 0.775 ± 0.037; for YSDHFFQICGSF: 0.726 ± 0.0065. Same read-out and setting: the same measure for YSGNPGVRGFHG: 0.69 ± 0.073. The same measure, in the same setting: under YSGSKGVWTRWS stands 0.687 ± 0.02. In turn, YSGSYIEPREIR returned a protein stability index with Saccharomyces cerevisiae [2] of 0.626 ± 0.087. YSSGILPLEMIA showed a protein stability index in the data set with Saccharomyces cerevisiae [2] of 0.606 ± 0.0092. Same read-out and setting: under YSTFPPRIPRPP stands 0.524 ± 0.011; under YTESQVCLLSAY, 0.509 ± 0.0088; under YTPALFLPVRPA, 0.715 ± 0.06.

Regarding YTQVSSRGINID, the protein stability index in the data set on Saccharomyces cerevisiae [2] stood at 0.734 ± 0.029.

Regarding YTRILRKKLINK, the protein stability index with Saccharomyces cerevisiae [2] came to 0.711 ± 0.11.

Regarding YTSRLGRGILHV, the protein stability index in the data set on Saccharomyces cerevisiae [2] turned out to be 0.671 ± 0.031.

The sequence YVEGSWSSPRCR came in with a protein stability index with Saccharomyces cerevisiae [2] of 0.675 ± 0.12. The same measure, in the same setting: under YVKEEEKKKESK stands 0.681 ± 0.079; under YVRLSTLCGSAY, 0.58 ± 0.036. Same read-out and setting: the same measure for YVSNKMHGSLLS: 0.691 ± 0.03; for YVTITLGLASPT: 0.666 ± 0.026. Same read-out and setting: under YVVPLGIPPFKD stands 0.6591 ± 0.00099. The sequence YVWCINSARLVG yielded a protein stability index with Saccharomyces cerevisiae [2] of 0.587 ± 0.01. On the same count and under the same terms, under YWSRIFEAATIA stands 0.5436 ± 0.0024; under YWSTNGRCLMVL, 0.581 ± 0.017; under YYAMGFEKSISS, 0.682 ± 0.031. Same read-out and setting: under YYDWPGQRFSEE stands 0.67 ± 0.035. The same measure, in the same setting: under YYRKATFSPMVQ stands 0.684 ± 0.072; under YYSTPLARSRSP, 0.831 ± 0.21.
